Assay results published in patent US5858752.

Biological target: 32D c13 cells stably expressing the human Fuc-TIV (myeloid) enzyme
Experiment: adhesion of 51Cr-loaded cells to plate-captured selectin/IgM fusion protein

human E-selectin/IgM fusion protein (from UniProt P16581)
fold binding density relative to untransfected cells: 10 fold
